Reference: the nanobody polyreactivity screen of Harvey et al. (2022)

assay: yeast display, Sf9 membrane polyspecificity reagent, FACS + sequencing; frameworks hold sequencing errors
How it was run: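 In a synthetic yeast display library (Saccharomyces cerevisiae BJ5465), nanobody expression was induced with galactose for 36–48 hours. FACS gates were set low and high (top ~1%) using anti-HA fluorescence for expression and streptavidin fluorescence for binding of the Sf9 membrane reagent. Each polyreactivity label is drawn from the gate of origin.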

Sequence | polyreactivity (PSR sort gate)
QVQLVESGGGLVQAGGSLRLSCAASGRIFDIYAMGWYRQAPGKERELVAAITTRGGSTYYADSVKGRFTISRDNAKNNVYLQMNSLKPEDTAVYYCAAAYSEDYRVIFYYWGQGTQVTVSS | low polyreactivity
QVQLVESGGGLVQAGGSLRLSCAASGRIFDIYAMGWYRQAPGKERELVAGITSVGSTNYADSVKGRFTISRDNAKNTVYLQMNSLKPEDTAVYYCAADTSVHSEVDYWGQGTQVTVSS | low polyreactivity
QVQLVESGGGLVQAGGSLRLSCAASGRIFDIYAMGWYRQAPGKERELVAGITSVGSTNYADSVKGRFTISRDNEKNTVYLQMNSLKPEDTAVYYCAAKAYFSTSPYHREHDSWGQGTQVTVSS | low polyreactivity
QVQLVESGGGLVQAGGSLRLSCAASGRIFDIYGMGWYRQAPGKERELLAAITWRGGSTYYADSVKGRFTISRDNAKNTVYLQMKSLNPEDTAVYYCNARKRGARFILGYDYWGQGTQVTVSS | low polyreactivity
QVQLVESGGGLVQAGGSLRLSCAASGRIFDIYTMGWYRQAPGKERELVASITKRGGSTYYADSVKGRFTISRDNAKNTVYLQMKSLKPEDTAVYFCNVAGKQKPYYVTTRLDYWGQGTQVTVSS | high polyreactivity
QVQLVESGGGLVQAGGSLRLSCAASGRIFDLNAMGWYRQAPGKERELVAVISWSGGIKYYADSVKGRFTISRDNAKNTVYLQMNSLKPEDTAVYYCNADTVFDPYYEFDYWGLGTQVTVSS | low polyreactivity
QVQLVESGGGLVQAGGSLRLSCAASGRIFDLYAMGWYRQAPGKERELVAAITWRGGSTYYADSVKGRFTISRDNAKNTVYLQMNSLKPEDTAVYYCAARSYYISPWRFDYWGQGTQVTVSS | high polyreactivity
QVQLVESGGGLVQAGGSLRLSCAASGRIFDPYAMGWYRQAPGKERELVASNSWSGGRTYYADSVKGRFTISRDNAKNTVYLQMNSLKPEDTAVYYCAKVRAYTRLGLTVSMDYWGQGTQVTVSS | high polyreactivity
QVQLVESGGGLVQAGGSLRLSCAASGRIFDQNAMGWYRQAPGKERELVAAISSSGGRTYYADSVKGRFTISRDNAKNTVYLQMNSLKPEDTAVYYCAARYRFQRGGYYYWGQGTQVTVSS | high polyreactivity
QVQLVESGGGLVQAGGSLRLSCAASGRIFDRNAMGWYRPSPGTERELLAAIDDSGGDTSYADSVKGRFTISRDNAKNTVYLQMNSLKPEDTAVYYCNAGYADFVTYPRYYYWGQGTQVTVSS | low polyreactivity
QVQLVESGGGLVQAGGSLRLSCAASGRIFDRNAMGWYRQAPGKERELVAAIDDSGGDTSYADSVKGRFTISRDTAKNTVYLQMNSLKPEDTAVYYCAAKRQYYQTGSQRSYPYDYWGQGTQVTVSS | low polyreactivity
QVQLVESGGGLVQAGGSLRLSCAASGRIFDRNAMGWYRQAPGKERELVAAIRRGGSTNYADSVKGRFTISRDNAKNTVYLQMNSLKPEDTAVYYCNTVYSEYYIAYDYWGQGTQVTVSS | high polyreactivity
QVQLVESGGGLVQAGGSLRLSCAASGRIFDRNAMGWYRQAPGKERELVARIDPGDDTNYADSVKGRFTISRDNAKHTVYLQMHSLKPEDTAVYYCATDPDYVLFRTAYYEYDYWGQGTQVTVSS | low polyreactivity
QVQLVESGGGLVQAGGSLRLSCAASGRIFDRYAMGWYRPAPGKERELVAASTGSGGRTYYADSVKGRFTISRDNAKNTVYLQMNSLKPEDTAVYYCARAFGQRRYYYWGQGTQVTVSS | high polyreactivity
QVQLVESGGGLVQAGGSLRLSCAASGRIFDRYVMGWYRQAPGKERELVAAISSGGSTYYADSVKGRFTISRDNAKNTVYLQMNSLKPEDTAVYYCAADRRSKYDYWGQGTQVTVSS | low polyreactivity
QVQLVESGGGLVQAGGSLRLSCAASGRIFDSYAMGWYRQAPGKERELVAAISFGGDTYYADSVKGRFTISRDNAKNTVYLQMNSLKPEDTAVYYCAKDNPAALFDSWGQGTQVTVSS | low polyreactivity
QVQLVESGGGLVQAGGSLRLSCAASGRIFDTYVMRWYRQAPGKERELVAAISGSGGSTYYADSVKGRFTISRDTAKNTVYLQMNSLKPEDTAVYYCAAVVLGRLLGFRGDYNYWGQGPQVTVSS | high polyreactivity
QVQLVESGGGLVQAGGSLRLSCAASGRIFDVYAMGWYRQAPGKERELVAAITWSGTSTYYADSVKGRFTISRDNAKNTVYLQMNSLKPEDTAVYYCNALSYGRYLNYRGGMDYWGQGTQVTVSS | high polyreactivity
QVQLVESGGGLVQAGGSLRLSCAASGRIFDVYAMGWYRQAPGKERELVATISSSGGATYYADSVKGRFTISRDNAKNTVYLQMNSLKPEDTAVYYCATTYRPTFRRHYNYWGQGTQVTVSS | low polyreactivity
QVQLVESGGGLVQAGGSLRLSCAASGRIFDVYAMGWYRQSPGKERELVAAISWSGSSTYYADSVKGRFTISRDTAKNTVYFQMNSLKPEDTAVYYCAADYPKTYTSKFNYWGQGTQVTVSS | high polyreactivity
QVQLVESGGGLVQAGGSLRLSCAASGRIFDWYAMGWYRQAPGKERELVATISWSGGSTYYADSVKGRFTISRDNAKNTVYLQMNSLKPEDTAVYYCAADDYWRLYTWKFDYWGQGTQVTVSS | high polyreactivity
QVQLVESGGGLVQAGGSLRLSCAASGRIFDYYAMGWYRQAPGKERELVAAINSGGSTYYADSVKGRFTISRDNAKNTVYLQMNSLKPEDTAVYYCAAKSFAPIVDYWGQGTQVTVSS | high polyreactivity
QVQLVESGGGLVQAGGSLRLSCAASGRIFDYYAMGWYRQAPGKERELVAAITRGGSTYYADSVKGRFTISRDNAKNTVYLQLNSLNPVDTEVYYCAASIGIRFIKYDYWGQGAQVTVSS | high polyreactivity
QVQLVESGGGLVQAGGSLRLSCAASGRIFDYYAMGWYRQAPGKERELVAAITSSGGSTYYADSVKGRFTISRDNAKNTVYLQMNSLKPEDTAVYYCAAGRKVQSRRYGYWGQGTQVTVSS | high polyreactivity
QVQLVESGGGLVQAGGSLRLSCAASGRIFDYYAMGWYRQAPGKERELVAVISGSGGTYYADSVKGRFTISRDNAKNTVYLQMNSLKPEDTAVYYCNAAVTSYPGYEYWGQGTQVTVSS | low polyreactivity
QVQLVESGGGLVQAGGSLRLSCAASGRIFDYYAMGWYRQAPGNERELVAAINSGGSTYYADSVKGRFTISRDNAKNTVSLQMNSLKPEDTAVYYCNALRKSLRGGDYWGQGTQVTVSS | high polyreactivity
QVQLVESGGGLVQAGGSLRLSCAASGRIFDYYTMGWSRQAPGKVRELVAAISSGGRTYYADSVKGRFTISRDNAKNTVYLQMNSLKPEDTAVYYCNALDTRHTYTYTGGKRFPYDHWGQGTQVTVSS | low polyreactivity
QVQLVESGGGLVQAGGSLRLSCAASGRIFDYYYMGWYRQAPGKERELVAAISNGGSTYYADSVKGRFTISRDNAKNTVYLQMNSLKPEDTAVYYGAAVISFSGYDYYYWGQGTQVTVSS | high polyreactivity
QVQLVESGGGLVQAGGSLRLSCAASGRIFEDYAMGWYRQAAGKERELVARISSGDSTNYADSVKGRFTISRDNAKNTVYLQMNSLKPVVTAVYYCAAEGGVQEFDYWGQGTQVTVSS | low polyreactivity
QVQLVESGGGLVQAGGSLRLSCAASGRIFEINARGWYRQAPGKERELVAAITRSGGSTYYADSVKGRFTISRDNAKNTVYFQMNSLTPEDTAVYYCAARGRYWYSRYYSWGQGTQVTVSS | high polyreactivity
